{"source": "paper doi:10.1101/2024.06.19.598823", "about": "(bioRxiv, 2024)", "target": "RBD protein of SARS-like CoV WIV16 (Bat SARS-like coronavirus WIV16)", "assay": "ELISA"}
{"binder": "nanobody 7F (VHH) VHH: EVQLVESGGGLVEAGGSLRLSCVASGLTFSDYTMAWFRQVPGQEREFVSHIGWGGSETYYADSVKGRFTISRDNAKNAMYLQMNELKPDDTAVYYCAADRGSSFYYVRESEYTFWGQGTQVTVSS", "values": [{"measurement": "binding result", "result": "binds"}]}
